Data as given in IntAct's records for PubMed 17304241.

B1: Protein zyg-11 homolog B (Homo sapiens), Q9C0D3 (parent)
chain: MPEDQAGAAMEEASPYSLLDICLNFLTTHLEKFCSARQDGTLCLQEPGVFPQEVADRLLRTMAFHGLLNDGTVGIFRGNQMRLKRACIRKAKISAVAFRKAFCHHKLVELDATGVNADITITDIISGLGSNKWIQQNLQCLVLNSLTLSLEDPYERCFSRLSGLRALSITNVLFYNEDLAEVASLPRLESLDISNTSITDITALLACKDRLKSLTMHHLKCLKMTTTQILDVVRELKHLNHLDISDDKQFTSDIALRLLEQKDILPNLVSLDVSGRKHVTDKAVEAFIQQRPSMQFVGLLATDAGYSEFLTGEGHLKVSGEANETQIAEALKRYSERAFFVREALFHLFSLTHVMEKTKPEILKLVVTGMRNHPMNLPVQLAASACVFNLTKQDLAAGMPVRLLADVTHLLLKAMEHFPNHQQLQKNCLLSLCSDRILQDVPFNRFEAAKLVMQWLCNHEDQNMQRMAVAIISILAAKLSTEQTAQLGTELFIVRQLLQIVKQKTNQNSVDTTLKFTLSALWNLTDESPTTCRHFIENQGLELFMRVLESFPTESSIQQKVLGLLNNIAEVQELHSELMWKDFIDHISSLLHSVEVEVSYFAAGIIAHLISRGEQAWTLSRSQRNSLLDDLHSAILKWPTPECEMVAYRSFNPFFPLLGCFTTPGVQLWAVWAMQHVCSKNPSRYCSMLIEEGGLQHLYNIKDHEHTDPHVQQIAVAILDSLEKHIVRHGRPPPCKKQPQARLN

Variants of: B1
Conditions: with eloc_human ELOC

effect of a mutation on the interaction | Variant
disrupting interaction | L18S
disrupting interaction | C22S
